T1: endogenous IRF3 (human (endogenous in HEK293)), Q14653
T1 chain: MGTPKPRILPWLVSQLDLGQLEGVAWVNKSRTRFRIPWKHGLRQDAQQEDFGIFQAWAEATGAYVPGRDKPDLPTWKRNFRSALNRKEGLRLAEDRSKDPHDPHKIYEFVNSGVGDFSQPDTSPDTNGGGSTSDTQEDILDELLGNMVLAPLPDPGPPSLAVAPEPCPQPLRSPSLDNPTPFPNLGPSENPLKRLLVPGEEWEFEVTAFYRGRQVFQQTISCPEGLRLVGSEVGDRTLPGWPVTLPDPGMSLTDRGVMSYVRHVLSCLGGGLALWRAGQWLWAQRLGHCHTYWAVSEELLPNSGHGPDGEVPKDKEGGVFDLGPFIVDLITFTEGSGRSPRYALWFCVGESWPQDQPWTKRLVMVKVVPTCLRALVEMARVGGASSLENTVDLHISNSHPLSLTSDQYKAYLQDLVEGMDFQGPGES

T2: endogenous mouse IRF3 (mouse (endogenous in peritoneal macrophages)), P70671
T2 chain: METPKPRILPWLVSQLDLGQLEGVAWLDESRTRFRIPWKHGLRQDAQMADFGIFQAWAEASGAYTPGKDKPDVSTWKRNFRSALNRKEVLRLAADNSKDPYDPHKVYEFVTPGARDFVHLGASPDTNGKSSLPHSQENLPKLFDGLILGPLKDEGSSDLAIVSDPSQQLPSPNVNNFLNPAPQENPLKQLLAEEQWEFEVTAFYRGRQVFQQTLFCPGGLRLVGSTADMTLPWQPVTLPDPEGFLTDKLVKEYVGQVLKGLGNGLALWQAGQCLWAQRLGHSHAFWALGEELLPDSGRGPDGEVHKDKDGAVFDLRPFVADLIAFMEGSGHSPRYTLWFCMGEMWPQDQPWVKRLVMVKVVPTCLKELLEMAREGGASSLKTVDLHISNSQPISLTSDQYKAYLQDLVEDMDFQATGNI


Assays:
[1] = target: T1, endogenous IRF3 (human (endogenous in …)); experiment: native gel or EMSA; S5 fractions of stimulated cells on 9% native PAGE (0.4% Doc-Na in running buffer, 4 °C); immunoblot of IRF3; settings: remark: other sources report otherwise
[2] = target: T2, endogenous mouse IRF3 (mouse …); experiment: as above; settings: remark: other sources report otherwise

Binder	stoichiometry N [1]	stoichiometry N [2]
endogenous IRF3, Q14653 1-427 (natural protein) MGTPKPRILPWLVSQLDLGQLEGVAWVNKSRTRFRIPWKHGLRQDAQQEDFGIFQAWAEATGAYVPGRDKPDLPTWKRNFRSALNRKEGLRLAEDRSKDPHDPHKIYEFVNSGVGDFSQPDTSPDTNGGGSTSDTQEDILDELLGNMVLAPLPDPGPPSLAVAPEPCPQPLRSPSLDNPTPFPNLGPSENPLKRLLVPGEEWEFEVTAFYRGRQVFQQTISCPEGLRLVGSEVGDRTLPGWPVTLPDPGMSLTDRGVMSYVRHVLSCLGGGLALWRAGQWLWAQRLGHCHTYWAVSEELLPNSGHGPDGEVPKDKEGGVFDLGPFIVDLITFTEGSGRSPRYALWFCVGESWPQDQPWTKRLVMVKVVPTCLRALVEMARVGGASSLENTVDLHISNSHPLSLTSDQYKAYLQDLVEGMDFQGPGES	2	–
endogenous mouse IRF3, P70671 1-419 (natural protein) METPKPRILPWLVSQLDLGQLEGVAWLDESRTRFRIPWKHGLRQDAQMADFGIFQAWAEASGAYTPGKDKPDVSTWKRNFRSALNRKEVLRLAADNSKDPYDPHKVYEFVTPGARDFVHLGASPDTNGKSSLPHSQENLPKLFDGLILGPLKDEGSSDLAIVSDPSQQLPSPNVNNFLNPAPQENPLKQLLAEEQWEFEVTAFYRGRQVFQQTLFCPGGLRLVGSTADMTLPWQPVTLPDPEGFLTDKLVKEYVGQVLKGLGNGLALWQAGQCLWAQRLGHSHAFWALGEELLPDSGRGPDGEVHKDKDGAVFDLRPFVADLIAFMEGSGHSPRYTLWFCMGEMWPQDQPWVKRLVMVKVVPTCLKELLEMAREGGASSLKTVDLHISNSQPISLTSDQYKAYLQDLVEDMDFQATGNI	–	2
